Data published in patent US9284543B2, “Neutral active soluble truncated PH20 polypeptides and uses thereof” (Halozyme, Inc., priority 2008, dated 2016).

Assays:
[1] = Effect of glycosidase treatment on rHuPH20 hyaluronidase activity; assay type: biochemical; parameters: unit not given here
Procedure: (§1) In short, a 4×BH 96-well plate was coated with biotinylated-HA (1.1 MDa). The 72 hour post transfection supernatant from cells transfected with human PH20 hyaluronidase carboxy-terminus deletion mutants was diluted in buffer at either pH 7.4 or pH 5.5 and added to individual wells of the plate and allowed to incubate at 37° C. for 90 minutes. The reaction was terminated by addition of 4M guanidine HCl. The wells were washed 4× with Phosphate Buffered Saline with Tween20 (PBST) to remove any digested biotinylated-HA followed by addition of streptavidin-HRP for 1 hour at room temperature. The wells were washed 4× with PBST and the plate was developed with TMB. The plate was read at 450 nm using an ELISA plate reader. Hyaluronidase activity (in Units/mL) was determined by interpolating the measured absorbance at 450 nm with a hyaluronidase reference standard curve. Full length mature human PH20 hyaluronidase and untransfected CHO cells were used as positive and negative controls.
Human PH20 hyaluronidase is glycosylated at six different asparagine residues, including N82, N166, N235, N254, N368, and N393. Five glycosidases were used to generate deglycosylated human PH20 hyaluronidase, including: PNGaseF (New England Biolabs, Cat. No. P0704S, Lot #34), which cleaves all N-glycans; EndoF1, which cleaves high mannose and hybrid type glycans; EndoF2, which cleaves biantennary complex type glycans; EndoF3, which cleaves biantennary and more branched complex glycans; and EndoH (New England Biolabs, Cat. No. P0702S), which cleaves high mannose and hybrid type glycans. Therefore, treatment with PNGaseF results in complete deglycosylation whereas treatment with endoglycosidases results in only partial deglycosylation.
For complete deglycosylation, purified rHuPH20 (0.1 mg/mL final concentration) was incubated with PNGaseF (50,000 units/mL) in 50 mM phosphate buffer pH 7.2 overnight at 37° C. For partial deglycosylation, purified rHuPH20 (0.5 mg/mL final concentration) was incubated with 0.3 units/mL of endoglycosidase (either EndoF1, EndoF2, EndoF3 or EndoH) or a mixture all four endoglycosidases in 50 mM sodium acetate buffer pH 5.0 overnight at 35° C. Deglycosylation of rHuPH20 was analyzed by the shift in the mobility of PH20 by SDS-PAGE. Hyaluronidase enzymatic activity was determined as described in Example 5.

[2] = bHA enzymatic assay of PH20 transiently expressed in lectin resistant CHO mutants; assay type: biochemical; conditions: pH5.5; for PH20 Activity (1:27): 1:27 dilution; for PH20 Activity (1:81): 1:81 dilution
Procedure: as §1
The resulting cell culture media was analyzed by Western blot analysis and hyaluronidase activity was measured using the biotinylated HA enzymatic assay (as described in Examples 3 and 5 above).

[3] = Hyaluronidase activity of N-glycan site specific deglycosylation mutants (biotinylated-HA assay); assay type: biochemical; conditions: media of transfected CHO-S cells
Procedure: as §1
PH20sHis (SEQ ID NO:210) was used as a template for mutagenesis of each asparagine residue to alanine using QuikChange® Site-Directed Mutagenesis Kit (Cat No. 200518, Stratagene). […] Six single mutants were generated, one for each of the N-glycosylation sites. Additionally, three double mutants and a triple mutant were generated for asparagines N82, N166 and N254, all of which are occupied by complex type glycans. Finally, a double mutant N368A/N393A was generated, lacking high mannose glycans. The mutants were transfected into CHO—S cells and expression was performed as described in Example 2A. Secretion into the media and hyaluronidase activity were determined as described in Examples 3 and 5, above.

[4] = Microtiter hyaluronidase activity assay with biotinylated-hyaluronic acid; assay type: biochemical; conditions: 72 hour post transfection supernatant
[5] = Triton X-114 partition assay; assay type: physicochemical; conditions: partition into aqueous phase of Triton X-114 at 37° C.
CHO-S cells [6] = test: Western blot analysis of PH20 expression in media and cells after transient expression; assay type: cell-based, Chinese Hamster; conditions: media versus cells
Method in brief: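 PH20 expression and solubility were judged by anti-PH20 Western blot of non-reduced media and cell fractions, with expression shown by a ~66 kDa band. Samples came from CHO-S cells transiently transfected (GeneJuice) with mutant PH20-HZ24 DNA and cultured 48-72 h. GPI-anchored mutants were cleaved with PI-PLC to release soluble protein.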

CHO-S cells [7] = test: PI-PLC treatment of expressing cells, Western blot of media and cells; assay type: cell-based, Chinese Hamster; conditions: cells incubated with PI-PLC for 2 hours
Method in brief: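 CHO-S cells transiently expressing rHuPH20 or C-terminal truncation mutants were treated with PI-PLC (0.5 units/well, or 3.0 units/dish in serum/detergent-free medium) for 2 h at 37 °C after 48–72 h expression. Untreated and treated media and cell extracts were analysed separately by Western blot for PH20.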

B1: PNGaseF: purified rHuPH20 incubated with PNGaseF (complete deglycosylation) (protein, listed as Homo sapiens)
chain: LNFRAPPVIPNVPFLWAWNAPSEFCLGKFDEPLDMSLFSFIGSPRINATGQGVTIFYVDRLGYYPYIDSITGVTVNGGIPQKISLQDHLDKAKKDITFYMPVDNLGMAVIDWEEWRPTWARNWKPKDVYKNRSIELVQQQNVQLSLTEATEKAKQEFEKAGKDFLVETIKLGKLLRPNHLWGYYLFPDCYNHHYKKPGYNGSCFNVEIKRNDDLSWLWNESTALYPSIYLNTQQSPVAATLYVRNRVREAIRVSKIPDAKSPLPVFAYTRIVFTDQVLKFLSQDELVYTFGETVALGASGIVIWGTLSIMRSMKSCLLLDNYMETILNPYIINVTLAAKMCSQVLCQEQGVCIRKNWNSSDYLHLNPDNFAIQLEKGGKFTVRGKPTLEDLEQFSEKFYCSCYSTLSCKEKADVKDTDAVDVCIADGVCIDAFLKPPMETEEPQIFY
modifications: N-glycans removed by PNGaseF; soluble rHuPH20 36-482
For B1, the “rHuPH20 activity after glycosidase treatment (assay readout)” value (from here on “rHuPH20 activity”) ([1]; rHuPH20 0.0080 U/ml) was 1.9172, the “rHuPH20 activity” value ([1]; rHuPH20 0.0400 U/ml) was 1.9926 and the “rHuPH20 activity” value ([1]; rHuPH20 0.2000 U/ml) was 1.9173. The “rHuPH20 activity” value ([1]; rHuPH20 1.0000 U/ml) was 1.9315.

B2: HZ24-mut(B/S): plasmid encoding PH20 truncated at amino acid 482, SEQ ID NO:122 (protein, listed as Homo sapiens)
chain: LNFRAPPVIPNVPFLWAWNAPSEFCLGKFDEPLDMSLFSFIGSPRINATGQGVTIFYVDRLGYYPYIDSITGVTVNGGIPQKISLQDHLDKAKKDITFYMPVDNLGMAVIDWEEWRPTWARNWKPKDVYKNRSIELVQQQNVQLSLTEATEKAKQEFEKAGKDFLVETIKLGKLLRPNHLWGYYLFPDCYNHHYKKPGYNGSCFNVEIKRNDDLSWLWNESTALYPSIYLNTQQSPVAATLYVRNRVREAIRVSKIPDAKSPLPVFAYTRIVFTDQVLKFLSQDELVYTFGETVALGASGIVIWGTLSIMRSMKSCLLLDNYMETILNPYIINVTLAAKMCSQVLCQEQGVCIRKNWNSSDYLHLNPDNFAIQLEKGGKFTVRGKPTLEDLEQFSEKFYCSCYSTLSCKEKADVKDTDAVDVCIADGVCIDAFLKPPMETEEPQIFY
modifications: soluble rHuPH20 36-482
In the case of B2, the “PH20 Activity (1:27)” value ([2]; expressed in Pro-5 cells) is reported as 0.6615 U/mL and the “PH20 Activity (1:81)” value ([2]; expressed in Pro-5 cells) is reported as 1.1745 U/mL.

B3: HZ24-PH20sHis: his-tagged PH20 (SEQ ID NO:187), human PH20 clone with HexaHis tag after amino acid S490 (protein)
chain: MGVLKFKHIFFRSFVKSSGVSQIVFTFLLIPCCLTLNFRAPPVIPNVPFLWAWNAPSEFCLGKFDEPLDMSLFSFIGSPRINATGQGVTIFYVDRLGYYPYIDSITGVTVNGGIPQKISLQDHLDKAKKDITFYMPVDNLGMAVIDWEEWRPTWARNWKPKDVYKNRSIELVQQQNVQLSLTEATEKAKQEFEKAGKDFLVETIKLGKLLRPNHLWGYYLFPDCYNHHYKKPGYNGSCFNVEIKRNDDLSWLWNESTALYPSIYLNTQQSPVAATLYVRNRVREAIRVSKIPDAKSPLPVFAYTRIVFTDQVLKFLSQDELVYTFGETVALGASGIVIWGTLSIMRSMKSCLLLDNYMETILNPYIINVTLAAKMCSQVLCQEQGVCIRKNWNSSDYLHLNPDNFAIQLEKGGKFTVRGKPTLEDLEQFSEKFYCSCYSTLSCKEKADVKDTDAVDVCIADGVCIDAFLKPPMETEEPQIFYNASPSTLSHHHHHH
modifications: His6 tag; PH20sHis
For B3, the “Activity pH 5.5” value ([3]; pH 5.5) was “YES”, the “Activity pH 7.4” value ([3]; pH 7.4) was “YES” and the “PH20 Activity (1:27)” value ([2]; expressed in Lec1 cells) was 0.54 U/mL. The “PH20 Activity (1:81)” value ([2]; expressed in Lec1 cells) was 0.7695 U/mL, the “PH20 Activity (1:27)” value ([2]; expressed in Lec2 cells) was 0.675 U/mL and the “PH20 Activity (1:81)” value ([2]; expressed in Lec2 cells) was 1.053 U/mL. The “PH20 Activity (1:27)” value ([2]; expressed in Lec8 cells) was 0.2565 U/mL, the “PH20 Activity (1:81)” value ([2]; expressed in Lec8 cells) was 0.567 U/mL and the “PH20 Activity (1:27)” value ([2]; expressed in Pro-5 cells) was 0.297 U/mL. The “PH20 Activity (1:81)” value ([2]; expressed in Pro-5 cells) was 0.6075 U/mL.

B4: SPAM1-PSTL: C-terminally truncated human PH20, precursor 489 aa (SEQ ID NO:12), mature 454 aa (SEQ ID NO:64) (protein, listed as Homo sapiens)
chain 1: MGVLKFKHIFFRSFVKSSGVSQIVFTFLLIPCCLTLNFRAPPVIPNVPFLWAWNAPSEFCLGKFDEPLDMSLFSFIGSPRINATGQGVTIFYVDRLGYYPYIDSITGVTVNGGIPQKISLQDHLDKAKKDITFYMPVDNLGMAVIDWEEWRPTWARNWKPKDVYKNRSIELVQQQNVQLSLTEATEKAKQEFEKAGKDFLVETIKLGKLLRPNHLWGYYLFPDCYNHHYKKPGYNGSCFNVEIKRNDDLSWLWNESTALYPSIYLNTQQSPVAATLYVRNRVREAIRVSKIPDAKSPLPVFAYTRIVFTDQVLKFLSQDELVYTFGETVALGASGIVIWGTLSIMRSMKSCLLLDNYMETILNPYIINVTLAAKMCSQVLCQEQGVCIRKNWNSSDYLHLNPDNFAIQLEKGGKFTVRGKPTLEDLEQFSEKFYCSCYSTLSCKEKADVKDTDAVDVCIADGVCIDAFLKPPMETEEPQIFYNASPSTL
chain 2: LNFRAPPVIPNVPFLWAWNAPSEFCLGKFDEPLDMSLFSFIGSPRINATGQGVTIFYVDRLGYYPYIDSITGVTVNGGIPQKISLQDHLDKAKKDITFYMPVDNLGMAVIDWEEWRPTWARNWKPKDVYKNRSIELVQQQNVQLSLTEATEKAKQEFEKAGKDFLVETIKLGKLLRPNHLWGYYLFPDCYNHHYKKPGYNGSCFNVEIKRNDDLSWLWNESTALYPSIYLNTQQSPVAATLYVRNRVREAIRVSKIPDAKSPLPVFAYTRIVFTDQVLKFLSQDELVYTFGETVALGASGIVIWGTLSIMRSMKSCLLLDNYMETILNPYIINVTLAAKMCSQVLCQEQGVCIRKNWNSSDYLHLNPDNFAIQLEKGGKFTVRGKPTLEDLEQFSEKFYCSCYSTLSCKEKADVKDTDAVDVCIADGVCIDAFLKPPMETEEPQIFYNASPSTL
modifications: HuPH20 precursor 1-489; mature HuPH20 36-489
With B4 the “pH 5.5 Activity” value ([4]; Table 6) was 1.089 Units/ml, the “pH 7.4 Activity” value ([4]; Table 6) was 1.557 Units/ml and the “pH 5.5 Activity” value ([4]; Table 6A) was 3.321 Units/ml. The “pH 7.4 Activity” value ([4]; Table 6A) was 1.985 Units/ml, the Soluble [5] was “YES” and the “Expressed in Media” value (CHO-S cells [6]) was “YES”. The “Expressed in Media Following Addition of PI-PLC” value (CHO-S cells [7]) was “Initially in media”.
